Values quoted from earlier work as cited in patent US20210265014A1, “METHOD AND ELECTRONIC SYSTEM FOR PREDICTING AT LEAST ONE FITNESS VALUE OF A PROTEIN VIA AN EXTENDED NUMERICAL SEQUENCE, RELATED COMPUTER PROGRAM PRODUCT” (PEACCEL, priority 2018, published 2021).
Substitutions are numbered along the chain they refer to.

B1: L215 F_A217N_R219S_L249Y_T317W_T318V_C350V: epoxide hydrolase mutant from Aspergillus niger (protein)
chain: NHKAFAKFPSSASISPNPFTVSIPDEQLDDLKTLVRLSKIAPPTYESLQADGRFGITSEWLTTMREKWLSEFDWRPFEARLNSFPQFTTEIEGLTIHFAALFSEREDAVPIALLHGWPGSFVEFYPILQLFREEYTPETLPFHLVVPSLPGYTFSSGPPLDKDFGLMDNARVVDQLMKDLGFGSGYIIQGGDIGSFVGRLLGVGFDACKAVHLNLCNMSAPPEGPSIESLSAAEKEGIARMEKFMTDGYAYAMEHSTRPSTIGHVLSSSPIALLAWIGEKYLQWVDKPLPSETILEMVSLYWLTESFPRAIHTYREWVPTASAPNGATMLQKELYIHKPFGFSFFPKDLVPVPRSWIATTGNLVFFRDHAEGGHFAALERPRELKTDLTAFVEQVWQK
B2: WT: WT epoxide hydrolase sequence from Aspergillus niger (protein)
chain: B1 chain with N217A, S219R, Y249L, W317T, V318T, V350C
modifications: Aspergillus niger

Details: Aspergillus niger epoxide hydrolase; for ΔΔG values: enantioselectivity as ΔΔG‡=−RT ln(E); for E-value: enantioselectivity, glycidyl phenyl ether

Row | Molecule | ΔΔG values | E-value
1 | B1 | -2.73 kcal/mol | 93.2
2 | B2 | -0.85 kcal/mol | 4
